The text below walks through data of patent publication US20170296640A1 (IMMATICS BIOTECHNOLOGIES, published 2017).

B1: ALIEEAYGL (SEQ ID NO: 63) (peptide)
peptide: ALIEEAYGL
B2: AMEEAVAQV (SEQ ID NO: 78) (peptide)
peptide: AMEEAVAQV
B3: NLLGMIFSM (SEQ ID NO: 7) (peptide)
peptide: NLLGMIFSM
B4: KLAPIPVEL (SEQ ID NO: 66) (peptide)
peptide: KLAPIPVEL
B5: FLQELQLEHA (SEQ ID NO: 84) (peptide)
peptide: FLQELQLEHA
B6: AMKEEKEQL (SEQ ID NO: 79) (peptide)
peptide: AMKEEKEQL
B7: GLATIRAYL (SEQ ID NO: 86) (peptide)
peptide: GLATIRAYL
B8: GLFDNRSGLPEA (SEQ ID NO: 88) (peptide)
peptide: GLFDNRSGLPEA
B9: HLSSTTAQV (SEQ ID NO: 91) (peptide)
peptide: HLSSTTAQV
B10: MLQDGIARL (SEQ ID NO: 98) (peptide)
peptide: MLQDGIARL
B11: LLATVNVAL (SEQ ID NO: 67) (peptide)
peptide: LLATVNVAL
B12: YLGEEYPEV (SEQ ID NO: 73) (peptide)
peptide: YLGEEYPEV
B13: NLTDVSPDL (SEQ ID NO: 65) (peptide)
peptide: NLTDVSPDL
B14: LLAGQATTAYF (SEQ ID NO: 94) (peptide)
peptide: LLAGQATTAYF
B15: AALKYIPSV (SEQ ID NO: 75) (peptide)
peptide: AALKYIPSV
B16: RLIRTIAAI (SEQ ID NO: 100) (peptide)
peptide: RLIRTIAAI
B17: ALADLVPVDVVV (SEQ ID NO: 76) (peptide)
peptide: ALADLVPVDVVV
B18: LLNFSPGNL (SEQ ID NO: 97) (peptide)
peptide: LLNFSPGNL
B19: KLLFEIASA (SEQ ID NO: 92) (peptide)
peptide: KLLFEIASA
B20: FIFSYITAV (SEQ ID NO: 81) (peptide)
peptide: FIFSYITAV
B21: GLAPAEVVVATVA (SEQ ID NO: 85) (peptide)
peptide: GLAPAEVVVATVA
B22: GLFARIIMI (SEQ ID NO: 87) (peptide)
peptide: GLFARIIMI
B23: FLVEVSNDV (SEQ ID NO: 64) (peptide)
peptide: FLVEVSNDV
B24: HLDEVFLEL (SEQ ID NO: 90) (peptide)
peptide: HLDEVFLEL
B25: SLLNKDLSL (SEQ ID NO: 61) (peptide)
peptide: SLLNKDLSL
B26: KLLGSLQLL (SEQ ID NO: 93) (peptide)
peptide: KLLGSLQLL
B27: GLTALHVAV (SEQ ID NO: 89) (peptide)
peptide: GLTALHVAV
B28: YLFDEIDQA (SEQ ID NO: 80) (peptide)
peptide: YLFDEIDQA
B29: SLDLRPLEV (SEQ ID NO: 74) (peptide)
peptide: SLDLRPLEV
B30: TLITLPLLFL (SEQ ID NO: 6) (peptide)
peptide: TLITLPLLFL
B31: VLIEILQKA (SEQ ID NO: 70) (peptide)
peptide: VLIEILQKA
B32: ALYAVIEKA (SEQ ID NO: 8) (peptide)
peptide: ALYAVIEKA
B33: LLLNENESLFL (SEQ ID NO: 96) (peptide)
peptide: LLLNENESLFL
B34: TLQEETAVYL (SEQ ID NO: 72) (peptide)
peptide: TLQEETAVYL
B35: QIAAFLFTV (SEQ ID NO: 68) (peptide)
peptide: QIAAFLFTV
B36: FLMDDNMSNTL (SEQ ID NO: 83) (peptide)
peptide: FLMDDNMSNTL
B37: FLIDGSSSV (SEQ ID NO: 82) (peptide)
peptide: FLIDGSSSV
B38: ALAPYLDLL (SEQ ID NO: 62) (peptide)
peptide: ALAPYLDLL
B39: VLLDYVGNVQL (SEQ ID NO: 71) (peptide)
peptide: VLLDYVGNVQL
B40: LLFDLIPVVSV (SEQ ID NO: 95) (peptide)
peptide: LLFDLIPVVSV
B41: ALLDVSNNYGI (SEQ ID NO: 77) (peptide)
peptide: ALLDVSNNYGI
B42: TLLAFPLLL (SEQ ID NO: 69) (peptide)
peptide: TLLAFPLLL
B43: QLYDGATALFL (SEQ ID NO: 99) (peptide)
peptide: QLYDGATALFL
B44: FLLDLDPLL (SEQ ID NO: 9) (peptide)
peptide: FLLDLDPLL

The target of this assay is T1, HLA-A*02:01 (peptide-receptive MHC class I monomer after UV cleavage of the UV-sensitive ligand) (human).
T1 construct: MHC monomers loaded by UV-ligand exchange and captured on streptavidin plates
In words: UV ligand-exchange ELISA; exchange yield grade (+ >=10%, ++ >=20%, +++ >=50%, ++++ >=75%). The essentials:
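Binding capacity is expressed as the yield of UV-mediated ligand exchange, reflecting how well each peptide stabilizes peptide-receptive MHC. Stabilized complexes are read out by anti-β2m HRP ELISA (450 nm) after streptavidin capture, with refolded MLA-001 monomer standards for quantitation.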
On the technique in general: An ELISA detects its analyte on a solid surface through an enzyme-linked reagent.
B1: the peptide exchange yield was 50 to 75%.

As to B2, the peptide exchange yield is 50 to 75%.

For the molecule B3, the peptide exchange yield is not below 75%.

In turn, B4 gave a peptide exchange yield not below 75%.

With B5, the peptide exchange yield is 50 to 75%.

B6 registered a peptide exchange yield of 20 to 50%.

Turning to B7, the peptide exchange yield fell in the range of 50 to 75%.

In the case of B8, the peptide exchange yield fell in the range of 50 to 75%.

As for B9, the peptide exchange yield lay in the range of 20 to 50%.

Consider B10, for which the peptide exchange yield was 50 to 75%.

B11 yielded a peptide exchange yield not below 75%.

As for B12, the peptide exchange yield lay within 50 to 75%.

With B13, the peptide exchange yield lay in the range of 50 to 75%.

The molecule B14 showed a peptide exchange yield of 50 to 75%.

Consider B15, for which the peptide exchange yield lay in the range of 50 to 75%.

B16 returned a peptide exchange yield of 50 to 75%.

On to B17, for which the peptide exchange yield is not below 75%.

The molecule B18 returned a peptide exchange yield of 10 to 20%.

In turn, B19 registered a peptide exchange yield of 50 to 75%.

As for B20, the peptide exchange yield was in the range of 20 to 50%.

In the case of B21, the peptide exchange yield was 50 to 75%.

As to B22, the peptide exchange yield fell in the range of 20 to 50%.

The molecule B23 returned a peptide exchange yield not below 75%.

Turning to B24, the peptide exchange yield was in the range of 50 to 75%.

In turn, B25 displayed a peptide exchange yield not below 75%.

The molecule B26 displayed a peptide exchange yield not below 75%.

Take B27: the peptide exchange yield lay in the range of 50 to 75%.

B28 gave a peptide exchange yield of 50 to 75%.

B29 gave a peptide exchange yield not below 75%.

The molecule B30 came in with a peptide exchange yield of 50 to 75%.

As for B31, the peptide exchange yield is not below 75%.

The molecule B32 came in with a peptide exchange yield of 50 to 75%.

In the case of B33, the peptide exchange yield lay within 50 to 75%.

On to B34, for which the peptide exchange yield is 20 to 50%.

B35 registered a peptide exchange yield not below 75%.

As for B36, the peptide exchange yield was in the range of 50 to 75%.

B37 gave a peptide exchange yield of 50 to 75%.

As to B38, the peptide exchange yield was not below 75%.

As for B39, the peptide exchange yield was not below 75%.

B40 gave a peptide exchange yield of 50 to 75%.

In the case of B41, the peptide exchange yield was not below 75%.

B42 yielded a peptide exchange yield not below 75%.

On to B43, for which the peptide exchange yield fell in the range of 20 to 50%.

Turning to B44, the peptide exchange yield fell in the range of 50 to 75%.
